Experiment [1] concerns the target Human FcγRIIA, recombinantly expressed extracellular domain (human) (UniProt P12318). In words: BIAcore 3000, IgG immobilized, FcγR extracellular domain injected, equilibrium fit to a 1:1 binding isotherm. (In SPR one partner is held on a chip, and binding of the other changes the refractive index at the surface.)
The target in experiment [2] is Human FcγRIIB, recombinantly expressed extracellular domain (human) (UniProt P31994). The description is as above.
For experiment [3], the target named is Human FcγRIIIA (V158), recombinantly expressed extracellular domain (human) (UniProt P08637). The description is as above.
Sequence of Human FcγRIIIA (V158), recombinantly expressed extracellular domain (human) (P08637 17-208 F176V): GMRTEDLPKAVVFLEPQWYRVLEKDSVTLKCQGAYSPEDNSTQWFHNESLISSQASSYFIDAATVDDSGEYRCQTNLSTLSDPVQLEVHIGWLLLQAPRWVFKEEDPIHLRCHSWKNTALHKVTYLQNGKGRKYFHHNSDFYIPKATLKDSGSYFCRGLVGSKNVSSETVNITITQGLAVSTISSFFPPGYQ
Experiment [4] addresses Mouse FcγRIIB, recombinantly expressed extracellular domain (mouse) (UniProt P08101). The description is as above.
Experiment [5] addresses Mouse FcγRIII, recombinantly expressed extracellular domain (mouse) (UniProt P08508). The description is as above.
The target in experiment [6] is Mouse FcγRIV, recombinantly expressed extracellular domain (mouse). Described as above.
Sequence of Mouse FcγRIV, recombinantly expressed extracellular domain (mouse) (A0A0B4 entry or part of it limits assumed): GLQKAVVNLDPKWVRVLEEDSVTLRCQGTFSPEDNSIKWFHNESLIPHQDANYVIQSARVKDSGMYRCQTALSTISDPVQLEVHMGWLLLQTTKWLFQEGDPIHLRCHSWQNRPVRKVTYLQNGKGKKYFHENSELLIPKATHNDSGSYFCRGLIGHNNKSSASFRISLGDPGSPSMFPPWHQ
The target in experiment [7] is Human FcγRI, recombinantly expressed extracellular domain (human) (UniProt P12314). In words: BIAcore 3000, IgG immobilized, FcγR extracellular domain injected, equilibrium fit to a 1:1 binding isotherm; Fc variant 16C4-235F.
Sequence of Human FcγRI, recombinantly expressed extracellular domain (human) (P12314 16-292): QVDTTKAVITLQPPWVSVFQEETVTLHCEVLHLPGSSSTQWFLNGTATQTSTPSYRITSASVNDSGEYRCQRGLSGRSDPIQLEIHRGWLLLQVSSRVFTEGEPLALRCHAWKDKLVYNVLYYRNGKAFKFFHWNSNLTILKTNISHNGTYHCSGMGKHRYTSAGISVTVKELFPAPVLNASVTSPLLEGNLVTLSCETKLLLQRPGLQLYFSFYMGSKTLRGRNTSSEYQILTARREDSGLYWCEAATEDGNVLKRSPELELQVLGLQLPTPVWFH
For experiment [8] the target is unchanged. In words: BIAcore 3000, IgG immobilized, FcγR extracellular domain injected, equilibrium fit to a 1:1 binding isotherm; Fc variant 16C4-235Y.
Experiment [9] has the same target. In words: BIAcore 3000, IgG immobilized, FcγR extracellular domain injected, equilibrium fit to a 1:1 binding isotherm; 16C4, parent Fc (no Fc substitution).

Sequence of Human FcγRIIB, recombinantly expressed extracellular domain (human) (P31994 43-217): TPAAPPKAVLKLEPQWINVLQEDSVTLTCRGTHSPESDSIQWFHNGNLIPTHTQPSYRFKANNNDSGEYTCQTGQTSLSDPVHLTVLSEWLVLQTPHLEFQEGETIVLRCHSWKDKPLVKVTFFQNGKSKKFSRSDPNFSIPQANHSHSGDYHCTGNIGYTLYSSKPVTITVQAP
Sequence of Mouse FcγRIII, recombinantly expressed extracellular domain (mouse) (P08508 31-215): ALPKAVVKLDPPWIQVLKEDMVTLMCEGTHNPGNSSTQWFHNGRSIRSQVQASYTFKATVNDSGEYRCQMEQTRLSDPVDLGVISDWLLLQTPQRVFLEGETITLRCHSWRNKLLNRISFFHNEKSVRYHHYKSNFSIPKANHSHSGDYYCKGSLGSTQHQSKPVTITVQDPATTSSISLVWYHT
Sequence of Mouse FcγRIIB, recombinantly expressed extracellular domain (mouse) (P08101 30-210): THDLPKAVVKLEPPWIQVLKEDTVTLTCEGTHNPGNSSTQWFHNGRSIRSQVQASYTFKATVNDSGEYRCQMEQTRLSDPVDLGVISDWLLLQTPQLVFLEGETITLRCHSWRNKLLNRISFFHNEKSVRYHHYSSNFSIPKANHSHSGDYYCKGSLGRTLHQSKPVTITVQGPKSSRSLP
Sequence of Human FcγRIIA, recombinantly expressed extracellular domain (human) (P12318 34-217): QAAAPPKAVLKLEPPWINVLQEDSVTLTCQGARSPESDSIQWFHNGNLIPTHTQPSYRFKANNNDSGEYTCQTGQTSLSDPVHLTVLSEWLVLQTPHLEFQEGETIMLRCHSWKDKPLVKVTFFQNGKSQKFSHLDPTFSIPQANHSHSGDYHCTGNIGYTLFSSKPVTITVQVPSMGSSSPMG

Consider “16C4 Fc variant antibody comprising the L234F/L235F/P331S amino acid substitutions”, for which the Kd (as a rule, the free concentration of one partner at which half of the binding sites on the other are occupied at equilibrium, for simple one-to-one binding) came to 6.36 µM in experiment [1]; 6.81 µM in experiment [2]; 4.61 µM in [3]; 2.82 µM in [4]; 10.9 µM in experiment [5]; 11.1 µM in experiment [6]. In addition, the Kd in [7] stood at 1.53 µM.
On to “16C4 Fc variant antibody comprising the L234F/L235Y/P331S amino acid substitutions”, for which the Kd in experiment [1] was found to be 6.98 µM; in [2], 17.1 µM; in experiment [3], 5.14 µM; in [4], 2.67 µM; in [5], 9.24 µM; in experiment [8], 8.65 µM.
For “16C4 affinity matured anti-CD19 IgG antibody”, the Kd in [2] was found to be 14.5 µM; in experiment [3], 0.574 µM; in experiment [4] it was 1.47 µM; in [5], 6.36 µM; in experiment [6], 0.329 µM; in [9] it was 0.019 µM.

The values above are taken from US20180273621A1.
